# Results: patent US20200255499A1 (COUNCIL OF THE QUEENSLAND INSTITUTE OF MEDICAL RESEARCH, published 2020)
# Positions count from the first letter of the chain named.
# B1: Clone A11, original phage-displayed antibody fragment (other)
# VH: MQLVQSGAEVKKPGASVKVSCKTSGYNFNHQGISWLRQAPGQGLEWMGWISGFNGKTNYAQKFQGRVTMTADRSTTTAYMELRSLRSDDTAVYYCASGGEQWLVQNFVHWGQGTLLTVSS
# VL: VLTQEPSLTVSPGGTVTLTCASSTGAVTSGYYPNWFQQKPGQAPRALIYSTSNKHSWTPARFSGSLLGGKAALTLSGVQPEDEAEYYCLLYYGGAWVFGGGTKLTVL
# notes: The printed VH and VL begin one or two residues later than those of the other clones, so they may be cut short at the N-terminus; also called CloneA11 (phage clone)
# B2: C10 (antibody, V domains shown)
# VH: EVQLVQSGAEVKKPGASVKVSCKASGYTFNAYYIHWVRQAPGQGLDWMGWINPNSGGTNYAQNFKGRVTMTRDTSISTAYLELRSLTSDDTAVYFCATERGYTSSFRRDAFDKWGQGTMLTVSS
# VL: EAVVTQPPSASGTPGQGVTISCSGSSSNIGSNFVYWYQQLPGTAPKLLIYRNNQRPSGVPDRFSGSKSATSASLAISGLRSEDEADYYCATWDDSLSGYVFGTGTKLTVLG
# notes: Full IgG1 form of phage clone C10, expressed in Expi293F cells; It is not in the list MOLECULES; also called Clone C10 recombinant human IgG1 monoclonal antibody; CloneC10
# B3: Clone C10, original phage-displayed antibody fragment (other)
# VH: B2 VH
# VL: B2 VL
# notes: also called CloneC10 (phage clone)
# B4: Clone D7 recombinant human IgG1 monoclonal antibody (antibody, V domains shown)
# VH: B2 VH with K19E
# VL: ESVLTQPPSVSAAPGQKVTMSCSGSTSNIGSNSVSWYQHLPGTAPKLLLFDNAKRPSGIPDRFSGSKSGTSATLGITGLQTGDEADYYCGTWDSGLSVMVFGGGTKLTVLG
# B5: Clone D7, original phage-displayed antibody fragment (other)
# VH: B2 VH with K19E
# VL: B4 VL
# notes: also called CloneD7 (phage clone)
# B6: Clone E10, original phage-displayed antibody fragment (other)
# VH: B2 VH with K19E, M119L
# VL: ESVLTQPPSISAAPGQRVTIPCSGSSSDIGNHYVSWYQQLPGAAPKLLIYEDNKRPSGIPDRFSGSKSGTSASLGITGLQTGDEADYYCGTWDNSLRSGFFGGGTKVTVLG
# notes: also called CloneE10 (phage clone)
# B7: Clone B7, original phage-displayed antibody fragment (other)
# VH: B2 VH with K19E
# VL: ESVLTQPPSVSAAPGQKVTISCSGSSSNIGNNYVSWYQQLPGTAPKLLIYENNKRPSGIPDRFSGSKSGTSATLGITGLQTGDEAGYYCGTWDSSLSAVVFGGGTKLTVLG
# notes: also called CloneB7 (phage clone)
# B8: Clone E10 recombinant human IgG1 monoclonal antibody (antibody, V domains shown)
# VH: B2 VH with K19E, M119L
# VL: B6 VL
# B9: Clone B7 recombinant human IgG1 monoclonal antibody (antibody, V domains shown)
# VH: B2 VH with K19E
# VL: B7 VL
# notes: also called Antibody B7
# B10: Clone B8 recombinant human IgG1 monoclonal antibody (antibody, V domains shown)
# VH: EVQLVESAGEVQKPGESLRISCKASGYTFSHYWIGWVRQLPGKGLEWMGIIYPDDSDSRYSPSFQGQVTMSVDKSINTAYLQWNSLKVSDTATYYCVRHWLKRGSNFGFGFDPWGQGTTLTVSS
# VL: ESALTQPASVSGSPGQSITISCTGTSSDVGGYNYVSWYQQHPGKAPKLMIYDVSNRPSGVSNRFSGSKSGNTASLTISGLQAEDEADYYCSSYTSSSTLVFGGGTKLTVLG
# notes: also called antibody B8
# B11: Clone B8, original phage-displayed antibody fragment (other)
# VH: B10 VH
# VL: B10 VL
# notes: VH and VL are as translated from the PCR products of the original phage clone; also called CloneB8 (phage clone)
# B12: Clone A11 recombinant human IgG1 monoclonal antibody (antibody, V domains shown)
# VH: EMQLVQSGAEVKKPGASVKVSCKTSGYNFNHQGISWLRQAPGQGLEWMGWISGFNGKTNYAQKFQGRVTMTADRSTTTAYMELRSLRSDDTAVYYCASGGEQWLVQNFVHWGQGTLLTVSS
# VL: ETVLTQEPSLTVSPGGTVTLTCASSTGAVTSGYYPNWFQQKPGQAPRALIYSTSNKHSWTPARFSGSLLGGKAALTLSGVQPEDEAEYYCLLYYGGAWVFGGGTKLTVLG
# notes: also called Antibody A11
# Experiments:
# [1] = molecular target: T1, Epstein Barr Virus (EBV) glycoprotein gp350 (Epstein-Barr virus, UniProt P03200 1-860); assay: monoclonal phage ELISA on gp350
# T1 construct: Viral antigen: immunogen, coated in the ELISAs, immobilised on the CM5 chip in SPR; also called EBV gp350; gp350 antigen
# T1 sequence: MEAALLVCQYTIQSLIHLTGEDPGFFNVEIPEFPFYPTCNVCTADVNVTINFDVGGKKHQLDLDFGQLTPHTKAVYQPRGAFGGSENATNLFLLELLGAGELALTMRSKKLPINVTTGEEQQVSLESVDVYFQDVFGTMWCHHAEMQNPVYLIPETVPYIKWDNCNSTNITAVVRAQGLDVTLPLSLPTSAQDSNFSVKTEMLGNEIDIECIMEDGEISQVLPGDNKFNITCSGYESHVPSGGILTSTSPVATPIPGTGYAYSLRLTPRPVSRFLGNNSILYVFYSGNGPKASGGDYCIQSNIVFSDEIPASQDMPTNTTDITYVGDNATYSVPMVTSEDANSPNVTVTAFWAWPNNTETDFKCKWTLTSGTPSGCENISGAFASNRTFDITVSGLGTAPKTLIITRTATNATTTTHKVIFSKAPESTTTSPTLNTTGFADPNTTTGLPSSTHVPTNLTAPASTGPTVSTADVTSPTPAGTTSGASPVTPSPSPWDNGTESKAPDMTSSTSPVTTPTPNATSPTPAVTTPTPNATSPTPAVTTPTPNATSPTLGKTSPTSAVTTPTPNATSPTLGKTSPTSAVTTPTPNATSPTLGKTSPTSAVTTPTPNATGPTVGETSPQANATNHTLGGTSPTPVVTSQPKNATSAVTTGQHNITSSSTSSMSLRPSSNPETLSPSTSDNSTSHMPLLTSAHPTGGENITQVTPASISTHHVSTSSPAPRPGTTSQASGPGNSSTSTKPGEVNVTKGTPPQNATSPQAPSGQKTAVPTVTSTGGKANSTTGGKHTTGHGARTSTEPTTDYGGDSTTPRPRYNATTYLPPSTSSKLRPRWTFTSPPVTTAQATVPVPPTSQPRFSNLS
# [2] = molecular target: T1, Epstein Barr Virus (EBV) glycoprotein …; assay: SPR (Biacore T100), single cycle kinetics, gp350 immobilised on CM5 sensor chip, antibody as analyte
# [3] = molecular target: T1, Epstein Barr Virus (EBV) glycoprotein …; assay: SPR (Biacore T100), steady-state affinity plot, 1:1 Langmuir fit, gp350 immobilised on CM5 sensor chip, antibody as analyte
# [4] = molecular target: T1, Epstein Barr Virus (EBV) glycoprotein …; assay: SPR steady-state affinity plot, 1:1 Langmuir fit (FIG. 11), gp350 immobilised; given as 'affinity constant'; 'affinity constant' in M (FIG. 11)
# [5] = molecular target: T1, Epstein Barr Virus (EBV) glycoprotein …; assay: SPR (Biacore T100), gp350 immobilised on CM5 chip, antibody as analyte, single cycle kinetics; single cycle kinetics (FIG. 10), dissociation constant in nM
# [6] = molecular target: T1, Epstein Barr Virus (EBV) glycoprotein …; assay: SPR steady-state affinity plot, 1:1 Langmuir fit (FIG. 11), gp350 immobilised; printed as 'affinity value'; 'affinity value' in M (FIG. 11)
# [7] = molecular target: T1, Epstein Barr Virus (EBV) glycoprotein …; assay: SPR (Biacore T100), gp350 immobilised on CM5 chip, antibody as analyte, single cycle kinetics; single cycle kinetics (FIG. 10), 'dissociation value' in nM
# [8] = molecular target: T1, Epstein Barr Virus (EBV) glycoprotein …; assay: SPR (Biacore T100), gp350 immobilised on CM5 chip, antibody as analyte, single cycle kinetics
# [9] = molecular target: T1, Epstein Barr Virus (EBV) glycoprotein …; assay: SPR steady-state affinity plot, 1:1 Langmuir fit (FIG. 11), gp350 immobilised; given as 'affinity constant'
# [10] = molecular target: T1, Epstein Barr Virus (EBV) glycoprotein …; assay: SPR (Biacore T100), gp350 immobilised on CM5 chip, antibody as analyte, single cycle kinetics; single cycle kinetics (FIG. 10), 'KD value' in nM
binder,measurement,setting,value
B1,absorbance,[1],> 1 absorbance
B2,Kd,[2],11.4 nM
same,Kd,[3],663 nM
B3,absorbance,[1],> 1 absorbance
B4,Kd,[4],465 nM
same,Kd,[5],3.86 nM
B5,absorbance,[1],> 1 absorbance
B6,absorbance,[1],> 1 absorbance
B7,absorbance,[1],> 1 absorbance
B8,Kd,[4],664 nM
same,Kd,[5],2.23 nM
B9,Kd,[6],768 nM
same,Kd,[7],4.07 nM
B10,Kd,[8],33.3 nM
same,Kd,[9],829 nM
B11,absorbance,[1],> 1 absorbance
B12,Kd,[10],0.723 nM
same,Kd,[4],309 nM
